Assay results: patent US20200339678A1 (RIGEL PHARMACEUTICALS, published 2020)

T1: His-tagged recombinant Mouse TIGIT (mouse, UniProt P86176 29-148, limits assumed)
T1 construct: not shown: His tag
T1 sequence (looked up): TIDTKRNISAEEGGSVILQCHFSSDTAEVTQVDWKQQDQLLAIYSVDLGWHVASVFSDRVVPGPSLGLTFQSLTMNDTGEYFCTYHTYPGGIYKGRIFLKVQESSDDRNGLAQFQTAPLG


Each binder was assayed against T1, His-tagged recombinant Mouse TIGIT (assay: ELISA, coated His-tagged mouse TIGIT).
Description: Binding affinities for antigen binding to anti-TIGIT monoclonal antibodies were determined by ELISA. […] Antibodies to be tested were diluted to 1 μM in PBS buffer containing 1% BSA and diluted 3-fold in a 10-point curve. […] Detection of the secondary antibody was determined using streptavidin-HRP and TMB reagent. All assays were performed at room temperature. Curve-fitting software was used to determine the EC₅₀ for each antibody.

| Binder | EC50 [nM] |
| --- | --- |
| Ab150 (Fab, V domains shown, ARE set) VH: not shown VL: DIQMTQSPSSLSASVGDRVTITCRASQSISSYVAWYQQKPGKAPKLLIYVNTSRASGVPSRFSGSGSGTDFTLTISSLQPEDFATYYCQQWYEFNLTFGGGTKVEIK | 0.7 |
| Ab156 (Fab, V domains shown, ARV set) VH: EVQLLESGGGLVQPGGSLRLSCAASGFTFSSYAMSWVRQAPGKGLEWVSYISGNAGYISYADSVKGRFTISRDNSKNTLYLQMNSLRAEDTAVYYCARVPYGVWMDYWGQGTLVTVSS VL: DIQMTQSPSSLSASVGDRVTITCRASQSISSYAAWYQQKPGKAPKLLIYGNTSRQSGVPSRFSGSGSGTDFTLTISSLQPEDFATYYCQQYSNSPLTFGGGTKVEIK | 164 |
| Ab158 (Fab, V domains shown, ARE set) VH: EVQLLESGGGLVQPGGSLRLSCAASGFTFSSYSMSWVRQAPGKGLEWVAAIKGSAGTSGYADSVKGRFTISRDNSKNTLYLQMNSLRAEDTAVYYCAREPYGYWLDYWGQGTLVTVSS VL: DIQMTQSPSSLSASVGDRVTITCRASQSISSYVAWYQQKPGKAPKLLIYGNTSLQSGVPSRFSGSGSGTDFTLTISSLQPEDFATYYCQQGDENPLTFGGGTKVEIK | 156 |
| Ab57 (Fab, V domains shown, ARV set) VH: EVQLLESGGGLVQPGGSLRLSCAASGFTFSSYSMHWVRQAPGKGLEWVAYIKSDTSTIGYADSVKGRFTISRDNSKNTLYLQMNSLRAEDTAVYYCARVPYDVWIDYWGQGTLVTVSS VL: not shown | 305 |
| Ab71 (Fab, V domains shown, ARV set) VH: EVQLLESGGGLVQPGGSLRLSCAASGFTFSSYSMHWVRQAPGKGLEWVASISSSASTSYYADSVKGRFTISRDNSKNTLYLQMNSLRAEDTAVYYCARVPYGVWIDYWGQGTLVTVSS VL: not shown | 477 |
| Ab186 (Fab, V domains shown, ARV set) VH: EVQLLESGGGLVQPGGSLRLSCAASGFTFSSYSMHWVRQAPGKGLEWVASISSNAGYSSYADSVKGRFTISRDNSKNTLYLQMNSLRAEDTAVYYCARVPYDVWIDYWGQGTLVTVSS VL: not shown | 429 |
| Ab79 (Fab, V domains shown, ARV set) VH: EVQLLESGGGLVQPGGSLRLSCAASGFTFSSYAMHWVRQAPGKGLEWVADIKSNTGYTYYADSVKGRFTISRDNSKNTLYLQMNSLRAEDTAVYYCARVPYGVWIDYWGQGTLVTVSS VL: not shown | 86.6 |
| Ab138 (Fab, V domains shown, ARE set) VH: EVQLLESGGGLVQPGGSLRLSCAASGFTFSSYAMSWVRQAPGKGLEWVASIKSSTGTTGYADSVKGRFTISRDNSKNTLYLQMNSLRAEDTAVYYCAREPYSVWIDYWGQGTLVTVSS VL: not shown | 58.6 |
| Ab91 (Fab, V domains shown, ARE set) VH: EVQLLESGGGLVQPGGSLRLSCAASGFTFSSYSMSWVRQAPGKGLEWVAAIKGSAGSSSYADSVKGRFTISRDNSKNTLYLQMNSLRAEDTAVYYCAREPYSYWLDYWGQGTLVTVSS VL: not shown | 242 |
| Ab111 (Fab, V domains shown, ARV set) VH: EVQLLESGGGLVQPGGSLRLSCAASGFTFSSYSMHWVRQAPGKGLEWVSAISGSGGSTYYADSVKGRFTISRDNSKNTLYLQMNSLRAEDTAVYYCARVPYGYWMDYWGQGTLVTVSS VL: not shown | 186 |
| Ab140 (Fab, V domains shown, ARE set) VH: EVQLLESGGGLVQPGGSLRLSCAASGFTFSSYAMSWVRQAPGKGLEWVASINSNTGSIGYADSVKGRFTISRDNSKNTLYLQMNSLRAEDTAVYYCAREPYSYWLDYWGQGTLVTVSS VL: not shown | 173 |
| Ab123 (Fab, V domains shown, ARE set) VH: EVQLLESGGGLVQPGGSLRLSCAASGFTFSSYSMSWVRQAPGKGLEWVASISSSAGTSSYADSVKGRFTISRDNSKNTLYLQMNSLRAEDTAVYYCAREPYGVWLDYWGQGTLVTVSS VL: not shown | 578 |
| Ab199 (Fab, V domains shown, ARV set) VH: EVQLLESGGGLVQPGGSLRLSCAASGFTFSSYSMHWVRQAPGKGLEWVASISSSASTSGYADSVKGRFTISRDNSKNTLYLQMNSLRAEDTAVYYCARVPYGVWIDYWGQGTLVTVSS VL: not shown | 81 |
| Ab77 (Fab, V domains shown, ARE set) VH: EVQLLESGGGLVQPGGSLRLSCAASGFTFSSYSMNWVRQAPGKGLEWVAAISGNTGYTYYADSVKGRFTISRDNSKNTLYLQMNSLRAEDTAVYYCAREPYSYWMDYWGQGTLVTVSS VL: not shown | 111 |
| Ab100 (Fab, V domains shown, ARE set) VH: EVQLLESGGGLVQPGGSLRLSCAASGFTFSSYAMSWVRQAPGKGLEWVASINGNAGTISYADSVKGRFTISRDNSKNTLYLQMNSLRAEDTAVYYCAREPYSYWLDYWGQGTLVTVSS VL: not shown | 258 |
| Ab87 (Fab, V domains shown, ARV set) VH: EVQLLESGGGLVQPGGSLRLSCAASGFTFSSYSMSWVRQAPGKGLEWVASIKSSAGYISYADSVKGRFTISRDNSKNTLYLQMNSLRAEDTAVYYCARVPYDYWIDYWGQGTLVTVSS VL: not shown | 230 |

| Binder | EC50 [nM] |
| --- | --- |
| Ab128 (Fab, V domains shown, ARV set) VH: EVQLLESGGGLVQPGGSLRLSCAASGFTFSSYSMNWVRQAPGKGLEWVASIKGSASYTSYADSVKGRFTISRDNSKNTLYLQMNSLRAEDTAVYYCARVPYDYWIDYWGQGTLVTVSS VL: not shown | 265 |
| Ab168 (Fab, V domains shown, ARE set) VH: EVQLLESGGGLVQPGGSLRLSCAASGFTFSSYAMSWVRQAPGKGLEWVSSIKSDTSSTYYADSVKGRFTISRDNSKNTLYLQMNSLRAEDTAVYYCAREPYSYWLDYWGQGTLVTVSS VL: not shown | 253 |
| Ab119 (Fab, V domains shown, ARV set) VH: EVQLLESGGGLVQPGGSLRLSCAASGFTFSSYSMSWVRQAPGKGLEWVASIKSSTGTISYADSVKGRFTISRDNSKNTLYLQMNSLRAEDTAVYYCARVPYDYWMDYWGQGTLVTVSS VL: not shown | 279 |
| Ab65 (Fab, V domains shown, ARE set) VH: EVQLLESGGGLVQPGGSLRLSCAASGFTFSSYAMSWVRQAPGKGLEWVAYIKSNTGSISYADSVKGRFTISRDNSKNTLYLQMNSLRAEDTAVYYCAREPYSVWLDYWGQGTLVTVSS VL: not shown | 778 |
| Ab73 (Fab, V domains shown, ARV set) VH: EVQLLESGGGLVQPGGSLRLSCAASGFTFSSYSMSWVRQAPGKGLEWVASIKGSAGSSSYADSVKGRFTISRDNSKNTLYLQMNSLRAEDTAVYYCARVPYDVWLDYWGQGTLVTVSS VL: not shown | 266 |
| Ab117 (Fab, V domains shown, ARE set; also called clone Ab117) VH: EVQLLESGGGLVQPGGSLRLSCAASGFTFSSYAMSWVRQAPGKGLEWVAAIKSSASTIYYADSVKGRFTISRDNSKNTLYLQMNSLRAEDTAVYYCAREPYSVWMDYWGQGTLVTVSS VL: not shown | 10.7 |
| Ab137 (Fab, V domains shown, ARV set) VH: EVQLLESGGGLVQPGGSLRLSCAASGFTFSSYSMHWVRQAPGKGLEWVASIKGNTGSISYADSVKGRFTISRDNSKNTLYLQMNSLRAEDTAVYYCARVPYDYWIDYWGQGTLVTVSS VL: not shown | 84.9 |
| Ab183 (Fab, V domains shown, ARE set) VH: EVQLLESGGGLVQPGGSLRLSCAASGFTFSSYAMSWVRQAPGKGLEWVSYINSNTGSIGYADSVKGRFTISRDNSKNTLYLQMNSLRAEDTAVYYCAREPYGVWMDYWGQGTLVTVSS VL: not shown | 110 |
| Ab162 (Fab, V domains shown, ARE set) VH: EVQLLESGGGLVQPGGSLRLSCAASGFTFSSYAMSWVRQAPGKGLEWVAAIKSSASTIYYADSVKGRFTISRDNSKNTLYLQMNSLRAEDTAVYYCAREPYSVWMDYWGQGTLVTVSS VL: not shown | 20.4 |
| Ab154 (Fab, V domains shown, ARV set) VH: EVQLLESGGGLVQPGGSLRLSCAASGFTFSSYSMHWVRQAPGKGLEWVASIKSNTGTTGYADSVKGRFTISRDNSKNTLYLQMNSLRAEDTAVYYCARVPYGYWMDYWGQGTLVTVSS VL: not shown | 122 |
| Ab173 (Fab, V domains shown, ARV set) VH: EVQLLESGGGLVQPGGSLRLSCAASGFTFSSYAMSWVRQAPGKGLEWVSSISSNTGTISYADSVKGRFTISRDNSKNTLYLQMNSLRAEDTAVYYCARVPYGYWMDYWGQGTLVTVSS VL: not shown | 64.9 |
| Ab146 (Fab, V domains shown, ARV set) VH: EVQLLESGGGLVQPGGSLRLSCAASGFTFSSYAMHWVRQAPGKGLEWVASISGNAGSSSYADSVKGRFTISRDNSKNTLYLQMNSLRAEDTAVYYCARVPYGVWIDYWGQGTLVTVSS VL: not shown | 7.8 |
| Ab188 (Fab, V domains shown, ARV set) VH: EVQLLESGGGLVQPGGSLRLSCAASGFTFSSYSMHWVRQAPGKGLEWVASIKSNAGTSSYADSVKGRFTISRDNSKNTLYLQMNSLRAEDTAVYYCARVPYDVWIDYWGQGTLVTVSS VL: not shown | 40.3 |
| Ab81 (Fab, V domains shown, ARV set) VH: EVQLLESGGGLVQPGGSLRLSCAASGFTFSSYSMHWVRQAPGKGLEWVASIKGNTGSSGYADSVKGRFTISRDNSKNTLYLQMNSLRAEDTAVYYCARVPYDVWIDYWGQGTLVTVSS VL: not shown | 307 |
| Ab194 (Fab, V domains shown, ARE set) VH: EVQLLESGGGLVQPGGSLRLSCAASGFTFSSYSMSWVRQAPGKGLEWVSAINGNAGSIGYADSVKGRFTISRDNSKNTLYLQMNSLRAEDTAVYYCAREPYGVWMDYWGQGTLVTVSS VL: not shown | 70.6 |
| Ab101 (Fab, V domains shown, ARV set) VH: EVQLLESGGGLVQPGGSLRLSCAASGFTFSSYAMSWVRQAPGKGLEWVADISGSAGTISYADSVKGRFTISRDNSKNTLYLQMNSLRAEDTAVYYCARVPYGYWLDYWGQGTLVTVSS VL: not shown | 535 |
